From publication PMC4304843, “Human Mitochondrial Hsp70 (Mortalin): Shedding Light on ATPase Activity, Interaction with Adenosine Nucleotides, Solution Structure and Domain Organization” (PLoS ONE, 2015)

Experiments:
[1] = target: Human mitochondrial Hsp70 (mortalin), recombinant (human) (UniProt P38646); test: SEC; analytical SEC (Superdex 200 GL 10/30, TKP buffer pH 7.5) of mortalin directly after Ni2+ affinity chromatography
[2] = tested on: T1, Nc1ncnc2c1ncn2[C@@H]1O[C@H](COP(=O)(O)OP(=O)(O)OP(=O)(O)O)[C@@H](O)[C@H]1O; test: ATPase, EnzChek phosphate assay, Michaelis-Menten fit; assay type: biochemical, Homo sapiens; conditions: TKP buffer without phosphate pH 7.5, 2 mM Mg2+, 37°C, no co-chaperone
T1 construct: monomeric SEC fraction, alkaline phosphatase treated
Description: ATPase, EnzChek phosphate assay, Michaelis-Menten fit on human mortalin (mtHsp70, GRP75, HspA9, PBP74)

Sequence of human mortalin (mtHsp70, GRP75, HspA9, PBP74) (Homo sapiens) (chain, as listed by the source): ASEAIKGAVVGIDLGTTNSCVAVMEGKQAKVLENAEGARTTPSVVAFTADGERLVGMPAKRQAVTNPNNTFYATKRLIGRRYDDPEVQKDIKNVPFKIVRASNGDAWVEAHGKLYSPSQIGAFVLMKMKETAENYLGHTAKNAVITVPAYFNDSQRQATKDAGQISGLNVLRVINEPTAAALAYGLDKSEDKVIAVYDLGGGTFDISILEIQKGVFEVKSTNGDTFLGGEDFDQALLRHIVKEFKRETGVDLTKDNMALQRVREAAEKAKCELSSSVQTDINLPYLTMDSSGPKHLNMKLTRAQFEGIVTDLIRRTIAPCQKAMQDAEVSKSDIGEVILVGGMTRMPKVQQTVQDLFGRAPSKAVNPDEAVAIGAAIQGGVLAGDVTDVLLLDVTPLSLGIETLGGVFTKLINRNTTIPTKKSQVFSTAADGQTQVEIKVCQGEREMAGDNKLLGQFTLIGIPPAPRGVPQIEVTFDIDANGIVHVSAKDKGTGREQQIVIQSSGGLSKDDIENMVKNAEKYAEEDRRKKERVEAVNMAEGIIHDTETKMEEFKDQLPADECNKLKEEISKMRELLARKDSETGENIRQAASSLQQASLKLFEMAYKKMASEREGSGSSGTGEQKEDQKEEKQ

Substance: Human mitochondrial Hsp70 (mortalin), recombinant (from UniProt P38646 47-679) (natural protein)
- stoichiometry N [1]: 2

Substance: human mortalin (mtHsp70, GRP75, HspA9, PBP74) (Homo sapiens)
- Km [2]: 190 ± 20 µM
- kcat [2]: 0.00252 ± 3.33e-05 s⁻¹
